Data reported in paper PMC2659761 (Journal of molecular biology, 2008).

T1: Cif full-length (cycle inhibiting factor) (Escherichia coli (EPEC and EHEC)), P0DUW5
T1 chain: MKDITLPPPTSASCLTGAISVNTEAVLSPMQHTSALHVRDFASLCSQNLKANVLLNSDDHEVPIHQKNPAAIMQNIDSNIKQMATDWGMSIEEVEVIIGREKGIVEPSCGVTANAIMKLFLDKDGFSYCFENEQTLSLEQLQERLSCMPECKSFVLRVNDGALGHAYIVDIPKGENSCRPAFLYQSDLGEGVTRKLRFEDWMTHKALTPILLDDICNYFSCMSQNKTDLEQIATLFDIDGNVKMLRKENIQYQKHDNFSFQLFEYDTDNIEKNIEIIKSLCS

B1: Cif full-length (cycle inhibiting factor), P0DUW5 1-282 (natural protein)
chain: T1 chain
B2: Cif(100-282)-His, cycle inhibiting factor residues 100-282 with C-terminal His6 tag (the crystallized construct) (domain or fragment)
chain: REKGIVEPSCGVTANAIMKLFLDKDGFSYCFENEQTLSLEQLQERLSCMPECKSFVLRVNDGALGHAYIVDIPKGENSCRPAFLYQSDLGEGVTRKLRFEDWMTHKALTPILLDDICNYFSCMSQNKTDLEQIATLFDIDGNVKMLRKENIQYQKHDNFSFQLFEYDTDNIEKNIEIIKSLCS

Tests used:
[1] = target: T1, Cif full-length (cycle inhibiting …); assay: SEC; settings: remark: other sources report otherwise
SEC = target: the molecule itself; assay: SEC

Binder	stoichiometry N [1]	stoichiometry N (SEC)
B1	2	–
B2	–	2
